Results as given in patent publication US20200362300A1 (OSE IMMUNOTHERAPEUTICS, published 2020).
Values belong to the molecule of their own block, whether it stands above or below them.

Key:
[1] = biological target: human CD127 on human blood T cells (human) (UniProt P16871); assay: flow cytometry on CD3+ cells of three human donors
[2] = biological target: CD127-Fc (Sino Biological) (UniProt P16871); assay: SPR (Biacore), single cycle kinetics, CD127-Fc immobilised on CM5 chip, bivalent model
[3] = biological target: T1, CD127-Fc (Sino Biological) (UniProt P16871 21-239, limits assumed); assay: as above
T1 construct: whole entry named; Immobilised by amine coupling on a CM5 chip; also called CD127 protein; not shown: Fc part of the bought fusion; not described
T1 sequence (looked up): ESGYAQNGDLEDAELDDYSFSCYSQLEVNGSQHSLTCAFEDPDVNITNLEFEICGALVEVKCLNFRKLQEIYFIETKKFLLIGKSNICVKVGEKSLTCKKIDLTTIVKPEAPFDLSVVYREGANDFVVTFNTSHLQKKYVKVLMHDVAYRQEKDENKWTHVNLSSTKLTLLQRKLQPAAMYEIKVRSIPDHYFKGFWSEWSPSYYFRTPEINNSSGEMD
Protocol: CD127-Fc was immobilized by amine coupling on a CM5 chip. The carboxylic groups were esterified by injection of an NHS/EDC mix for 7 min. The CD127-Fc proteins diluted to 20 μg/ml in Na acetate buffer pH 4.6 were injected until an SPR signal of 500 RU was obtained. Free reactive sites were inactivated by injection of 1 M ethanolamine pH8.5 for 10 min.
Antibodies were analyzed in Single Cycle Kinetics (SCK) on CD127 to determine kinetic and affinity parameters. The surface functionalized with CD127-Fc was regenerated between each cycle by injection of a 4 M MgCl 2 solution for 30 seconds.

mean fluorescence intensity [1]: 4140 MFI | Kd [2]: 0.0683 nM
Molecule: eBIORDR5 (CD127 Monoclonal Antibody, eBioscience from Invitrogen/Thermo Fisher Scientific catalog # 14-1278-82)

Kd [3]: 1.62 nM
B1: Effi3-VH3VL3 (antibody, V domains shown)
VH: AVQLVESGGGLVQPGGSLKITCAASGFTFTNAAMYWVRQAPGKGLEWVARIRTKANNYATYYADSVKGRFTISRDDSKSTVYLQMDSVKTEDTATYYCIVVVLTTTRDYFDYWGQGVLVTVSS
VL: DIVLTQSPSSLPVTPGEPASISCRSSQSLLTVKGITSLYWFLQKPGQSPKLLIYRMSNRDSGVPDRFSGSGSETDFTLKISRVEAEDVGTYYCAQFLEYPHTFGAGTKLELKR
notes: also called Effi3-VH3L3; Effi3 clone VH3VL3
